From patent US20230038521A1 (INSTITUTE OF SCIENCE TOKYO, published 2023) come the findings set out here.

The target of the assay is T1, human HMGB1 protein (human, UniProt P09429 1-215).
T1 construct: Non-denatured protein, used as analyte in SPR and added to neurons in the MARCKS phosphorylation assay; also called High Mobility Group Box 1
T1 sequence (looked up): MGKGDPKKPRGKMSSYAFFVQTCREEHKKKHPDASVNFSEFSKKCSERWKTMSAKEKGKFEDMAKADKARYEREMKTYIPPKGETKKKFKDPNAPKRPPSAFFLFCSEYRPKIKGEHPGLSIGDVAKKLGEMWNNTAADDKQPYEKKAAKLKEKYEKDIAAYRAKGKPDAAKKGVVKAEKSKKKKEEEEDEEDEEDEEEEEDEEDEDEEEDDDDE
The assay can be described thus: SPR, Biacore T100, antibody immobilized on the chip, human HMGB1 as analyte. The method, then:
The interaction between the human monoclonal antibody group of the present invention and human HMGB1 protein was compared and examined using SPR. Specifically, using a sensor chip on which each human monoclonal antibody of the present invention was immobilized and human HMGB1 protein as an analyte, the interaction was measured over time with a surface plasmon resonance sensor (“Biacore T100”, manufactured by GE healthcare), to calculate an equilibrium dissociation constant (KD value) as an index of the antibody affinity.
Background: In SPR one partner is held on a chip, and binding of the other changes the refractive index at the surface.

B1: monoclonal antibody #213-001 (antibody, human IgG1, kappa, V domains shown)
VH: EVQLVQSGAEVKKPGSSVKVSCKASGGTFSSYAISWVRQAPGQGLEWMGGIIPIFGRANYAQKFQGRVTITADESTSTAYMELSSLRSEDTAVYYCASLVTDYWGQGTLVTVSS
VL: DIQMTQSPSSLSASTGDRVTITCRASQGISSYLAWYQQKPGKAPKLLIYAASTLQSGVPSRFSGSGSGTDFTLTISSLQPEDFATYYCQQANSFPITFGQGTRLEIKT
notes: Human IgG from the ADLib system; kappa light chain
The Kd is the concentration at which binding is half-saturated. Lower therefore signals a tighter complex. The molecule B1 yielded a Kd of 5.54 nM.

B2: monoclonal antibody #127 (antibody, human IgG1, kappa, V domains shown)
VH: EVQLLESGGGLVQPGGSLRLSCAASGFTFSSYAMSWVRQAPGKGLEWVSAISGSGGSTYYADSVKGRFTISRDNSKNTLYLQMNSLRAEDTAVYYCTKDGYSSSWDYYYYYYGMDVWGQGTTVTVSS
VL: DIQMTQSPSSLSASVGDRVTITCRASQSVSSYLAWYQQKPGKAPKLLIYEASNLQAGVPSRFSGSGSGTDFTLTINSLQPEDFATYYCLQHNSNPLTFGQGTKLEIKT
notes: Human IgG from the ADLib system (DT40 cell library); kappa light chain
Molecule B2 returned a Kd of 0.0217 nM.
